Laboratory results: patent publication US20230250168A1 (MABWELL SHANGHAI BIOSCIENCE, published 2023)

How the values were obtained:
[1] = target: T1, antigen human CLDN18.2, His-tagged (human, UniProt P56856-2 1-261, limits assumed); experiment: BLI (Fortebio), His-tagged antigen on NTA probe; ratio to 8K13-xiIgG
T1 construct: Recombinant antigen used in the Fortebio assay (His-tagged, captured on NTA probe); also called His-tagged antigen; not shown: His tag
Procedure: (§1) The binding kinetic parameters of the chimeric antibodies and the humanized antibodies thereof to the antigen human CLDN18.2 were analyzed by a Fortebio (BLITZ pro1.1.0.28) instrument. Before performing the assay, an NTA bioprobe was soaked in PBS for 10 min, and the probe was then placed in PBS containing 100 nM antigen for 300 s to capture the His-tagged antigen. The probe was further subjected to a binding reaction with 100 nM antibody for a binding time of 400 s, and the probe was then transferred to PBS and subjected to a dissociation reaction for 600 s. When the assay was finished, data from which the response value of a blank control had been deducted were fitted to a 1:1 Langmuir binding model using software, and then the kinetic constants for antigen-antibody binding were calculated.

[2] = target: T1, antigen human CLDN18.2, His-tagged; experiment: BLI (Fortebio), His-tagged antigen on NTA probe, 100 nM antibody, 1:1 fit
Procedure: as §1

[3] = target: T1, antigen human CLDN18.2, His-tagged; experiment: BLI (Fortebio), His-tagged antigen on NTA probe; ratio to 16K15-xiIgG
Procedure: as §1

[4] = target: T1, antigen human CLDN18.2, His-tagged; experiment: BLI (Fortebio), His-tagged antigen on NTA probe; ratio to 52E22-xiIgG
Procedure: as §1

[5] = target: T2, human CLDN18.2 expressed on cell surfaces (human, UniProt P56856-2 1-261); experiment: cell-based or functional assay
[6] = target: T1, antigen human CLDN18.2, His-tagged; experiment: SPR (BIAcore), antibody captured by anti-human Fc, antigen as analyte
Procedure: Referring to the instructions provided in the Human Antibody Capture Kit (cat No. BR-1008-39, Lot 10261753) from GE Healthcare, the analytical channel and the control sample channel on a CM5 sensor chip were first saturated and coupled with the maximum amount of anti-human Fc antibody, then buffers containing anti-human CLDN18.2 chimeric antibodies, humanized antibodies or a control antibody IMAB362 at 7.5 μg/ml were allowed to flow through the analytical channel and uniformly distribute. Finally, antigen samples diluted in gradient (the initial concentration was 20 nM and diluted by 1:3 to get 8 concentrations, and the concentration 0.741 nM was set to be repeated) were allowed to flow through both the analytical channel and the sample channel, and the photoreactions upon the binding of antibody to antigen were measured. Subsequently, the association constant Kon and dissociation constant Koff and affinity constant KD of each antibody were finally obtained by instrument software fitting analysis.

[7] = target: T2, human CLDN18.2 expressed on cell …; experiment: cell-based or functional assay; remark: listed apart in the source
[8] = target: T2, human CLDN18.2 expressed on cell …; experiment: FACS of hybridoma supernatants on CHOK1 cells
Procedure: Balb/c mice were immunized with CHOK1 cells stably expressing human CLDN18.2 protein on cell surfaces. One month later, sera from the mice were analyzed by flow cytometry (FACS), and spleens were taken from mice having high antibody titers in sera. The spleen cells isolated by standard methods were fused with myeloma cells P3X63Ag8.653 using PEG or electrofusion methods. The fused hybridoma cells were seeded in 384 well plates, and after 10-14 days of culture, supernatants obtained were analyzed by FACS for antibody secretion by the hybridoma cells. Several clones were obtained that were able to bind to CHOK1 cells stably expressing human CLDN18.2 protein on cell surfaces and were not able to bind to CHOK1 cells stably expressing human CLDN18.1 protein on cell surfaces. Single cells of the obtained clones were obtained by Limiting Dilution, and each of the monoclonal hybridoma cell clones obtained after being diluted three times secreted only one antibody.

Row | Koff/Koff(Xi-IgG) [1] | Kd [2] [nM] | Response [2] | koff [2] [s⁻¹] | kon [2] [M⁻¹ s⁻¹] | Koff/Koff(Xi-IgG) [3] | Koff/Koff(Xi-IgG) [4] | CDC EC50, BxPC3 cells stably expressing human CLDN18.2 (CCK-8) [5] [nM] | CDC EC50, CHOK1 cells stably expressing human CLDN18.2 (CCK-8) [5] [nM] | CDC EC50, NCI-N87 cells stably expressing human CLDN18.2 (CCK-8) [5] [nM] | Kd [6] [nM] | koff [6] [s⁻¹] | kon [6] [M⁻¹ s⁻¹] | ADCC reporter EC50 (Jurkat NFAT-luciferase effector cells), BxPC3 target cells [7] [nM] | ADCC reporter EC50 (Jurkat NFAT-luciferase effector cells), CHOK1 target cells [7] [nM] | ADCC reporter EC50 (Jurkat NFAT-luciferase effector cells), NCI-N87 target cells [7] [nM] | binding result [8] | Binder
1 | 1.74 | 0.744 | 0.133 | 0.000198 | 266000 |  |  |  |  |  |  |  |  |  |  |  |  | 8K13-hz00 (antibody, human IgG1, V domains shown, Humanized (direct CDR graft)) VH: QVQLVQSGAEVKKPGSSVKVSCKASGYAFSNYWMNWVRQAPGQGLEWMGQIYPGNGDTKYSGKFNSRVTITADESTSTAYMELSSLRSEDTAVYYCARFYYGNVMDYWGQGTLVTVSS VL: DIVMTQSPDSLAVSLGERATINCKSSQTLLNGGNQKNYLTWYQQKPGQPPKLLIYWASTRESGVPDRFSGSGSGTDFTLTISSLQAEDVAVYYCQNGYSYPLTFGQGTKLEIK
2 |  | 0.0895 | 0.176 | 2.15e-05 | 240000 | 0.14 |  |  |  |  |  |  |  |  |  |  |  | 16K15-hz00 (antibody, human IgG1, V domains shown, Humanized (direct CDR graft)) VH: EVQLVESGGGLVQPGGSLRLSCAASGITLSTYAMSWVRQAPGKGLEWVSSIISGGITYYLDSVKGRFTISRDNAKNSLYLQMNSLRAEDTAVYYCARKYHGNALDYWGQGTLVTVSS VL: DIVMTQSPDSLAVSLGERATINCKSSQSLLNSGNQRNYLTWYQQKPGQPPKLLIYWASTRESGVPDRFSGSGSGTDFTLTISSLQAEDVAVYYCQNNYFYPLTFGQGTKLEIK
3 | 0.59 | 0.297 | 0.139 | 6.73e-05 | 227000 |  |  |  |  |  |  |  |  |  |  |  |  | 8K13-hz11 (antibody, V domains shown) VH: QVQLVQSGAEVKKPGSSVKVSCKASGYAFSNYWMNWVRQAPGQGLEWMGQIYPGNGDTKYSGKFNSRVTITADKSTNTAYMELSSLRSEDTAVYYCARFYYGNVMDYWGQGTLVTVSS VL: DIVLTQSPDSLAVSLGERATINCKSSQTLLNGGNQKNYLTWYQQKPGQPPKLLIYWASTRESGVPDRFSGSGSGTDFTLTISSLQAEDLAVYYCQNGYSYPLTFGQGTKLEIK
4 |  | 0.309 | 0.188 | 6.11e-05 | 198000 |  | 1.72 |  |  |  |  |  |  |  |  |  |  | 52E22-hz00 (antibody, human IgG1, V domains shown, Humanized (direct CDR graft)) VH: QVQLVQSGSELKKPGASVKVSCKASGYTLTNYGMNWVRQAPGQGLEWMGWIRPNTGEPTYAEDFKGRFVFSLDTSVSTAYLQICSLKAEDTAVYYCARLYRGNTLDNWGQGTLVTVSS VL: DIVMTQSPDSLAVSLGERATINCKSSQNLLNSGNQRNYLTWYQQKPGQPPKLLIYWASTRESGVPDRFSGSGSGTDFTLTISSLQAEDVAVYYCQNGYSFPFTFGQGTKLEIK
5 | 3.5 | 1.51 | 0.133 | 0.000399 | 264000 |  |  | 28.5 | 21.3 | 57.7 | 28.5 | 0.00202 | 70900 | 0.304 | 0.589 | 0.15 |  | 8K13-hz24 (antibody, human IgG1, V domains shown, Humanized; also called 8K13-hz24 IgG; 8K13-24 IgG) VH: QVQLVQSGAEVKKPGSSVKVSCKASGYAFSNYWMNWVRQAPGQGLEWMGQIYPGSGDTKYSGKFQSRVTITADKSTNTAYMELSSLRSEDTAVYYCARFYYGNVMDYWGQGTLVTVSS VL: DIVLTQSPDSLAVSLGERATINCKSSQTLLSGGNQKNYLTWYQQKPGQPPKLLIYWASTRESGVPDRFSGSGSGTDFTLTISSLQAEDLAVYYCQQGYSYPLTFGQGTKLEIK
6 |  | 0.36 | 0.226 | 7.83e-05 | 218000 |  | 2.21 |  | 2.08 |  | 1.18 | 0.000172 | 146000 |  | 0.567 |  |  | 52E22-hz12 (antibody, human IgG1, V domains shown, Humanized; also called 52E22-hz12 IgG; 52E22-12 IgG) VH: QIQLVQSGSELKKPGASVKVSCKASGYTLTNYGMNWVRQAPGQGLEWMGWIRPNTGEPTYAEDFKGRFVFSLDTSVATAYLQITSLKAEDTAVYYCARLYRGNTLDNWGQGTLVTVSS VL: DIVMTQSPDSLAVSLGERATINCKSSQNLLSSGNQRNYLTWYQQKPGQPPKLLIYWASTRESGVPDRFSGSGSGTDFTLTISSLQAEDLAVYYCQQGYSFPFTFGQGTKLEIK
7 | 1 | 0.382 | 0.134 | 0.000114 | 298000 |  |  |  |  |  | 6.99 | 0.000573 | 81900 |  |  |  |  | 8K13-xiIgG (antibody, V domains shown, Murine variable regions on human IgG1 / kappa constant regions; also called 8K13 chimeric antibody) VH: QVHLQQSGAELVRPGSSVKISCKASGYAFSNYWMNWVRQRPGQGLEWIGQIYPGNGDTKYSGKFNSKDTLTADKSSNTAYMQLNSLTSEDSAVYFCARFYYGNVMDYWGQGTSVTVSS VL: DIVLTQSPSSLTVTAGEKVTMSCKSSQTLLNGGNQKNYLTWYQQKSGQPPKLLIYWASTRESGVPDRFTGSGSGTDFTLTISSVQAEDLAVYYCQNGYSYPLTFGVGTKLELKR
8 |  | 0.535 | 0.17 | 0.0001 | 188000 | 0.65 |  |  |  |  |  |  |  |  |  |  |  | 16K15-hz11 (antibody, human IgG1, V domains shown, Only positions of reverse mutations are printed; copies: 2 + 2) VH: EVQLVESGGGLVQPGGSLRLSCAGSGITLSTYAMSWVRQAPGKGLEWVSSIISGGITYYLDSVKGRFTISRDNAKNSLYLQMNSLRAEDTAVYYCARKYHGNALDYWGQGTLVTVSS VL: DIVMTQSPDSLAVSLGERATINCKSSQSLLNSGNQRNYLTWYQQKPGQPPKKLIYWASTRESGVPDRFSGSGSGTDFTLTISSLQAEDLAVYYCQNNYFYPLTFGQGTKLEIKR
9 |  | 0.542 | 0.238 | 0.000197 | 363000 |  | 5.55 |  |  |  |  |  |  |  |  |  |  | 52E22-hz11 (antibody, human IgG1, V domains shown, Only the position of the reverse mutation is printed; copies: 2 + 2) VH: QIQLVQSGSELKKPGASVKVSCKASGYTLTNYGMNWVRQAPGQGLEWMGWIRPNTGEPTYAEDFKGRFVFSLDTSVATAYLQITSLKAEDTAVYYCARLYRGNTLDNWGQGTLVTVSS VL: DIVMTQSPDSLAVSLGERATINCKSSQNLLNSGNQRNYLTWYQQKPGQPPKLLIYWASTRESGVPDRFSGSGSGTDFTLTISSLQAEDLAVYYCQNGYSFPFTFGQGTKLEIKR
10 |  | 0.0996 | 0.223 | 3.55e-05 | 357000 |  | 1 |  |  |  | 1.11 | 0.000545 | 490000 |  |  |  |  | 52E22-xiIgG (antibody, V domains shown, Murine variable regions on human IgG1 / kappa constant regions; also called 52E22 chimeric antibody) VH: QIQLVQSGPELKKPGETVKISCKASGYTLTNYGMNWVRQAPGKGLKWMGWIRPNTGEPTYAEDFKGRFVFSLETSAATAYLQITNLKSEDTSTYFCARLYRGNTLDNWGQGTSVIVSS VL: DIVMTQSPSSLTVTTGEKVTMSCKSSQNLLNSGNQRNYLTWYQQKPGQSPKLLIYWASTRESGVPYRFTGSGSGTDFTLTISSVQTDDLAIYYCQNGYSFPFTFGSGTKLEIKR
11 |  |  |  |  |  |  |  |  |  |  |  |  |  |  |  |  | binds | murine antibody 48G12 (antibody, V domains shown, Mouse hybridoma antibody (supernatant)) VH: EVQLRQSGPELVKPGASVKMSCKASGYTFTTYIINWVKQKPGQGLEWIGYINPYNDDTRYNERVKGKATLTSDKSSSTAYMELSSLTSEDSAVYYCARFYFGNSFTYWGQGTLVTVSA VL: DIVMTQSPSSLPVTVGERVTMTCKSSQGLFNSGNQRNYLTWYQQKPGQPPKLLIYWASTRESGVPDRFTGSGSGTDFTLTISSVQAEDLAIYYCQNNYIYPLTFGAGTKLELK
12 |  |  |  |  |  |  |  |  |  |  |  |  |  |  |  |  | binds | murine antibody 50C14 (antibody, V domains shown, Mouse hybridoma antibody (supernatant)) VH: EVQLRQSGPELVKPGASVKMSCKASGYTFTTYIINWVKQKPGQGLEWIGYINPYNDGTRYNERVKGKATLTSDKSSSTAYMELSSLTSEDSAVYYCARFHFGNSFTYWGQGTLVTVSA VL: DIVMTQSPSSLPVTTGEKVTMTCKSSQGLFNNGNQRNYLTWYQQKPGQPPKLLIYWASTRESGVPDRFIGSGSGTDFTLTISSVQAEDLAIYYCQNNYIFPLTFGAGTKLELK
